# Source: PMC8452638
# Legend:
# RAD-51 (nematode) [1] = assay: stopped-flow Cy3 fluorescence; conditions: SF buffer: 50 mM Tris-HCl pH 7.5, 5 mM MgCl2, 50 mM NaCl, 2 mM ATP or ADP or no nucleotide; EMSA 25 C with 0.125% glutaraldehyde; BLI room temperature with …
# RAD-51 (nematode) [2] = assay: stopped-flow Cy3 fluorescence, competitor challenge; conditions: Cy3 in backbone after nt 21; SF buffer: 50 mM Tris-HCl pH 7.5, 5 mM MgCl2, 50 mM NaCl, 2 mM ATP or ADP or no nucleotide; EMSA 25 C with 0.125% glutaraldehyde; BLI room temperature with …
# RAD-51 (nematode) [3] = biological target: RAD-51 (nematode) (UniProt Q95Q25)
substance,measurement,setting,value
TTTTTTTTTTTTTTTTTTTTTTTTTTTTTTTTTTTTTTTTTTT [Cy3-43mer (label position not stated)],IC50,RAD-51 (nematode) [1],200 nM
TTTTTTTTTTTTTTTTTTTTTTTTTTTTTTTTTTTTTTTTTTT [(Int21)-Cy3-43mer],K half,RAD-51 (nematode) [2],26 nM
RFS-1/RIP-1 complex (from UniProt P34348 1-245),"stopped-flow, Cy3-43mer ssDNA (15 nM), RAD-51 1 uM pre-mixed with increasing RFS-1/RIP-1 (up to 1 uM), no nucleotide: reduction of the fluorescence increase due to RAD-51 binding to ssDNA",RAD-51 (nematode) [3],3 fold
